Numbered stars: 1 amine (or outer) side, 2 acyl side, 3 side chain; on linkers, the order of the positions; unused ones are H or OH. Square brackets hold non-standard residues; d marks the D form. Primed or numbered codes have the meaning given here. Side chains are listed from the residue outwards. Ends that are not written are not given here. * marks the point of attachment. Phe(4-CH2NH2) = NCc1ccc(C[C@H](N)C(=O)O)cc1; C18 diacid = O=C(O)CCCCCCCCCCCCCCCCC(=O)*; γGlu = O=C(O)[C@H](CCC(=O)[*:2])N[*:1]; Met(O2) = CS(=O)(=O)CC[C@H](N)C(=O)O; αMeD = C[C@](N)(CC(=O)O)C(=O)O; PEG2′ = not defined here; AEEA = NCCOCCOCC(=O)O; Aib = CC(C)(N)C(=O)O
B1: TP681 (peptide)
peptide: H[Aib]QGTFTSDYSKYLDARAAQK([AEEA-AEEA-γGlu-C18 diacid])FVQWL[Met(O2)][αMeD]T-NH2
modifications: N-terminus assumed
SMILES: CC(C)C[C@H](NC(=O)[C@H](Cc1ccc(O)cc1)NC(=O)[C@H](CCCCN)NC(=O)[C@H](CO)NC(=O)[C@H](Cc1ccc(O)cc1)NC(=O)[C@H](CC(=O)O)NC(=O)[C@H](CO)NC(=O)[C@@H](NC(=O)[C@H](Cc1ccccc1)NC(=O)[C@@H](NC(=O)CNC(=O)[C@H](CCC(N)=O)NC(=O)C(C)(C)NC(=O)[C@@H](N)Cc1c[nH]cn1)[C@@H](C)O)[C@@H](C)O)C(=O)N[C@@H](CC(=O)O)C(=O)N[C@@H](C)C(=O)N[C@@H](CCCNC(=N)N)C(=O)N[C@@H](C)C(=O)N[C@@H](C)C(=O)N[C@@H](CCC(N)=O)C(=O)N[C@@H](CCCCNC(=O)COCCOCCNC(=O)COCCOCCNC(=O)CC[C@H](NC(=O)CCCCCCCCCCCCCCCCC(=O)O)C(=O)O)C(=O)N[C@@H](Cc1ccccc1)C(=O)N[C@H](C(=O)N[C@@H](CCC(N)=O)C(=O)N[C@@H](Cc1c[nH]c2ccccc12)C(=O)N[C@@H](CC(C)C)C(=O)N[C@@H](CCS(C)(=O)=O)C(=O)N[C@@](C)(CC(=O)O)C(=O)N[C@H](C(N)=O)[C@@H](C)O)C(C)C
B2: TP678 (peptide)
peptide: H[Aib]QGTFTSDYSKYLDARAA[Phe(4-CH2NH2)]([AEEA-AEEA-AEEA-γGlu-C18 diacid])DFVQWLLDT-NH2
modifications: N-terminus assumed
SMILES: CC(C)C[C@H](NC(=O)[C@H](Cc1ccc(O)cc1)NC(=O)[C@H](CCCCN)NC(=O)[C@H](CO)NC(=O)[C@H](Cc1ccc(O)cc1)NC(=O)[C@H](CC(=O)O)NC(=O)[C@H](CO)NC(=O)[C@@H](NC(=O)[C@H](Cc1ccccc1)NC(=O)[C@@H](NC(=O)CNC(=O)[C@H](CCC(N)=O)NC(=O)C(C)(C)NC(=O)[C@@H](N)Cc1c[nH]cn1)[C@@H](C)O)[C@@H](C)O)C(=O)N[C@@H](CC(=O)O)C(=O)N[C@@H](C)C(=O)N[C@@H](CCCNC(=N)N)C(=O)N[C@@H](C)C(=O)N[C@@H](C)C(=O)N[C@@H](Cc1ccc(CNC(=O)COCCOCCNC(=O)COCCOCCNC(=O)COCCOCCNC(=O)CC[C@H](NC(=O)CCCCCCCCCCCCCCCCC(=O)O)C(=O)O)cc1)C(=O)N[C@@H](CC(=O)O)C(=O)N[C@@H](Cc1ccccc1)C(=O)N[C@H](C(=O)N[C@@H](CCC(N)=O)C(=O)N[C@@H](Cc1c[nH]c2ccccc12)C(=O)N[C@@H](CC(C)C)C(=O)N[C@@H](CC(C)C)C(=O)N[C@@H](CC(=O)O)C(=O)N[C@H](C(N)=O)[C@@H](C)O)C(C)C
B3: TP693 (peptide)
peptide: HXQGTFTSDXSKYLDARAAQDFVXWLXDT
modifications: D-Ser (s) at 2; pAF(γEγEC16) at 10; K(PEG2PEG2γEC16-OH) at 24; L-methionine sulphone (2) at 27; C-terminal amide
B4: TP679 (peptide)
peptide: H[Aib]QGTFTSDYSKYLDARAAQ[Phe(4-CH2NH2)]([AEEA-AEEA-AEEA-γGlu-C18 diacid])FVQWLLDT-NH2
modifications: N-terminus assumed
SMILES: CC(C)C[C@H](NC(=O)[C@H](Cc1ccc(O)cc1)NC(=O)[C@H](CCCCN)NC(=O)[C@H](CO)NC(=O)[C@H](Cc1ccc(O)cc1)NC(=O)[C@H](CC(=O)O)NC(=O)[C@H](CO)NC(=O)[C@@H](NC(=O)[C@H](Cc1ccccc1)NC(=O)[C@@H](NC(=O)CNC(=O)[C@H](CCC(N)=O)NC(=O)C(C)(C)NC(=O)[C@@H](N)Cc1c[nH]cn1)[C@@H](C)O)[C@@H](C)O)C(=O)N[C@@H](CC(=O)O)C(=O)N[C@@H](C)C(=O)N[C@@H](CCCNC(=N)N)C(=O)N[C@@H](C)C(=O)N[C@@H](C)C(=O)N[C@@H](CCC(N)=O)C(=O)N[C@@H](Cc1ccc(CNC(=O)COCCOCCNC(=O)COCCOCCNC(=O)COCCOCCNC(=O)CC[C@H](NC(=O)CCCCCCCCCCCCCCCCC(=O)O)C(=O)O)cc1)C(=O)N[C@@H](Cc1ccccc1)C(=O)N[C@H](C(=O)N[C@@H](CCC(N)=O)C(=O)N[C@@H](Cc1c[nH]c2ccccc12)C(=O)N[C@@H](CC(C)C)C(=O)N[C@@H](CC(C)C)C(=O)N[C@@H](CC(=O)O)C(=O)N[C@H](C(N)=O)[C@@H](C)O)C(C)C
B5: TP699 (peptide)
peptide: H[Aib]QGTFTSEYSKKLDARAAQDFVK([AEEA-AEEA-γGlu-C18 diacid])WL[Met(O2)]DT-NH2
modifications: N-terminus assumed
SMILES: CC(C)C[C@H](NC(=O)[C@H](CCCCN)NC(=O)[C@H](CCCCN)NC(=O)[C@H](CO)NC(=O)[C@H](Cc1ccc(O)cc1)NC(=O)[C@H](CCC(=O)O)NC(=O)[C@H](CO)NC(=O)[C@@H](NC(=O)[C@H](Cc1ccccc1)NC(=O)[C@@H](NC(=O)CNC(=O)[C@H](CCC(N)=O)NC(=O)C(C)(C)NC(=O)[C@@H](N)Cc1c[nH]cn1)[C@@H](C)O)[C@@H](C)O)C(=O)N[C@@H](CC(=O)O)C(=O)N[C@@H](C)C(=O)N[C@@H](CCCNC(=N)N)C(=O)N[C@@H](C)C(=O)N[C@@H](C)C(=O)N[C@@H](CCC(N)=O)C(=O)N[C@@H](CC(=O)O)C(=O)N[C@@H](Cc1ccccc1)C(=O)N[C@H](C(=O)N[C@@H](CCCCNC(=O)COCCOCCNC(=O)COCCOCCNC(=O)CC[C@H](NC(=O)CCCCCCCCCCCCCCCCC(=O)O)C(=O)O)C(=O)N[C@@H](Cc1c[nH]c2ccccc12)C(=O)N[C@@H](CC(C)C)C(=O)N[C@@H](CCS(C)(=O)=O)C(=O)N[C@@H](CC(=O)O)C(=O)N[C@H](C(N)=O)[C@@H](C)O)C(C)C
B6: TP701 (peptide)
peptide: H[Aib]QGTFTSDYSKYLDERAAKDFVK([AEEA-AEEA-γGlu-C18 diacid])WL[Met(O2)]DT-NH2
modifications: N-terminus assumed
SMILES: CC(C)C[C@H](NC(=O)[C@H](Cc1ccc(O)cc1)NC(=O)[C@H](CCCCN)NC(=O)[C@H](CO)NC(=O)[C@H](Cc1ccc(O)cc1)NC(=O)[C@H](CC(=O)O)NC(=O)[C@H](CO)NC(=O)[C@@H](NC(=O)[C@H](Cc1ccccc1)NC(=O)[C@@H](NC(=O)CNC(=O)[C@H](CCC(N)=O)NC(=O)C(C)(C)NC(=O)[C@@H](N)Cc1c[nH]cn1)[C@@H](C)O)[C@@H](C)O)C(=O)N[C@@H](CC(=O)O)C(=O)N[C@@H](CCC(=O)O)C(=O)N[C@@H](CCCNC(=N)N)C(=O)N[C@@H](C)C(=O)N[C@@H](C)C(=O)N[C@@H](CCCCN)C(=O)N[C@@H](CC(=O)O)C(=O)N[C@@H](Cc1ccccc1)C(=O)N[C@H](C(=O)N[C@@H](CCCCNC(=O)COCCOCCNC(=O)COCCOCCNC(=O)CC[C@H](NC(=O)CCCCCCCCCCCCCCCCC(=O)O)C(=O)O)C(=O)N[C@@H](Cc1c[nH]c2ccccc12)C(=O)N[C@@H](CC(C)C)C(=O)N[C@@H](CCS(C)(=O)=O)C(=O)N[C@@H](CC(=O)O)C(=O)N[C@H](C(N)=O)[C@@H](C)O)C(C)C
B7: TP682 (peptide)
peptide: H[Aib]QGTFTSDYSKYLD[Aib]RAAQDFVQWLL[Phe(4-CH2NH2)]([AEEA-AEEA-γGlu-C18 diacid])TK-{γGlu-NH2}
B8: TP585 (peptide)
peptide: H[Aib]QGTFTSDYSKYLDARAAQ[Phe(4-CH2NH2)]([AEEA-AEEA-γGlu-C20‑OH])FVQWLLDT-NH2
B9: TP700 (peptide)
peptide: H[Aib]QGTFTSDYSEYLDKRAAQDFVK([AEEA-AEEA-γGlu-C18 diacid])WL[Met(O2)]DT-NH2
modifications: N-terminus assumed
SMILES: CC(C)C[C@H](NC(=O)[C@H](Cc1ccc(O)cc1)NC(=O)[C@H](CCC(=O)O)NC(=O)[C@H](CO)NC(=O)[C@H](Cc1ccc(O)cc1)NC(=O)[C@H](CC(=O)O)NC(=O)[C@H](CO)NC(=O)[C@@H](NC(=O)[C@H](Cc1ccccc1)NC(=O)[C@@H](NC(=O)CNC(=O)[C@H](CCC(N)=O)NC(=O)C(C)(C)NC(=O)[C@@H](N)Cc1c[nH]cn1)[C@@H](C)O)[C@@H](C)O)C(=O)N[C@@H](CC(=O)O)C(=O)N[C@@H](CCCCN)C(=O)N[C@@H](CCCNC(=N)N)C(=O)N[C@@H](C)C(=O)N[C@@H](C)C(=O)N[C@@H](CCC(N)=O)C(=O)N[C@@H](CC(=O)O)C(=O)N[C@@H](Cc1ccccc1)C(=O)N[C@H](C(=O)N[C@@H](CCCCNC(=O)COCCOCCNC(=O)COCCOCCNC(=O)CC[C@H](NC(=O)CCCCCCCCCCCCCCCCC(=O)O)C(=O)O)C(=O)N[C@@H](Cc1c[nH]c2ccccc12)C(=O)N[C@@H](CC(C)C)C(=O)N[C@@H](CCS(C)(=O)=O)C(=O)N[C@@H](CC(=O)O)C(=O)N[C@H](C(N)=O)[C@@H](C)O)C(C)C
B10: TP680 (peptide)
peptide: H[Aib]QGTFTSDYSKYLDARAAQDFVK([PEG2′-PEG2′-PEG2′-γGlu-C18‑OH])WL[Met(O2)]DT-NH2
B11: TP683 (peptide)
peptide: H[Aib]QGTFTSDYSKYLD[Aib]RAAQDFVQWLLK([AEEA-AEEA-γGlu-C18 diacid])TK-{γGlu-NH2}

These binders were tested against human Glucagon receptor (GCGR) (human, UniProt P47871 26-477) (assay: cell-based or functional assay).
Chain of human Glucagon receptor (GCGR) (P47871 26-477): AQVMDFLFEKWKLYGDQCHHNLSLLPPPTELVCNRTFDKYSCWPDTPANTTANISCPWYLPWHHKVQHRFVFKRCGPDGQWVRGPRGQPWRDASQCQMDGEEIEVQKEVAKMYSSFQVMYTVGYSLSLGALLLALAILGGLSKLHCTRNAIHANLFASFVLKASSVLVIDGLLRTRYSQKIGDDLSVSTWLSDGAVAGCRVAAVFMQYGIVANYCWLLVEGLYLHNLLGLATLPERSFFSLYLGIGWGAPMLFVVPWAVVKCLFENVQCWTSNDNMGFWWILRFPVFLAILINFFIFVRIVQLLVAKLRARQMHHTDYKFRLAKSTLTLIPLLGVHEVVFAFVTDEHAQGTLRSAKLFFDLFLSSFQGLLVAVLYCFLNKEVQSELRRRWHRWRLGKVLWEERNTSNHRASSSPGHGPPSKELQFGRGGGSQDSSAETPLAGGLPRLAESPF

B1 and B2 are within 1.5-fold of each other in “GCGR EC50 human” value: 0.27 nM for the first, 0.25 nM for the second.

Going from B3 to B4, the “GCGR EC50 human” value falls from 1.1 nM to 0.13 nM (8.5-fold).

B5 and B6 cannot be ordered by “GCGR EC50 human” value: > 19.8 nM for the first, > 4.9 nM for the second.

Going from B7 to B8, the “GCGR EC50 human” value falls from 2.35 nM to 1.13 nM (2.1-fold).

Going from B9 to B10, the “GCGR EC50 human” value falls from > 4.9 nM to 0.59 nM.

With B11 the “GCGR EC50 human” value was 4.97 nM.

What follows are binders tested against human GLP-1 receptor (GLP1R) (human, UniProt P43220 24-463) (assay: cell-based or functional assay).

First: B1
Second: B2
The “GLP1R EC50 human” value of the first is 6.1-fold lower: 0.15 nM for the first, 0.91 nM for the second.

Going from B3 to B4, the “GLP1R EC50 human” value falls from > 4.9 nM to 0.18 nM.

Going from B5 to B6, the “GLP1R EC50 human” value falls from > 19.8 nM to 0.18 nM.

Going from B7 to B8, the “GLP1R EC50 human” value falls from 2.31 nM to 0.566 nM (4.1-fold).

First: B9
Second: B10
The “GLP1R EC50 human” value of the first is 1.8-fold higher: 0.35 nM for the first, 0.19 nM for the second.

With B11 the “GLP1R EC50 human” value was 0.62 nM.

Reference: US20200270325A1 (Merck Sharp & Dohme, published 2020)
